From doi:10.1101/2025.10.16.682781
pKd: −log10 of the molar value.

Assays:
Assay in all cases: ITC
[1] = molecular target: FusB-CTD D322N (Pectobacterium carotovorum LMG2410)
[2] = molecular target: FusB-CTD wild type (C-terminal domain of the TonB homologue FusB of Pectobacterium carotovorum LMG2410) (Pectobacterium carotovorum LMG2410)
[3] = molecular target: FusB-CTD R241K (Pectobacterium carotovorum LMG2410)
[4] = molecular target: FusB-CTD R241A (Pectobacterium carotovorum LMG2410)

Row | Substance | pKd [1] | pKd [2] | pKd [3] | pKd [4]
1 | FusANTR-GFP D53A (domain or fragment) | 1.50 | 1.50 |  | 
2 | FusANTR-GFP wild type (GFP fusion construct containing the N-terminal region, residues 21-66, of FusA) (domain or fragment) | 5.03 |  | 1.60 | 1.41
3 | SpFer E93A/E94A (from UniProt P00221 51-147) (natural protein) |  | 1.50 |  | 
4 | SpFer F64Y (natural protein) |  | 1.51 |  | 
